Reference: the supplement of paper PMC12455559
± gives the standard deviation of the averaged measurements.

Columns and labels:
[1] = melting temperature (DSF); higher = more thermostable
In short: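 Enzymes made in E. coli C41(DE3) were nickel-bead purified and cut free with SUMO protease before testing. Differential scanning fluorimetry gave each melting temperature. For this, 5 μL 5X Sypro Orange was added to 45 μL enzyme (0 to 0.3 mg/mL) in sealed PCR plates, and a Bio-Rad CFX96 read fluorescence from 25 °C over 250 cycles of 0.3 °C each, ramping at 0.3 °C/s.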

[2] = purified protein yield per well (BCA); higher = higher soluble expression
In short: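 Candidate enzymes were made in 2 mL autoinduction cultures of E. coli C41(DE3) with 100 µg/mL kanamycin, at 37 °C for 2 h and then 18 °C for 40 h, and purified with Ni-charged magnetic beads and SUMO protease cleavage. The Pierce Rapid Gold BCA kit gave purified protein yield per well. Values lower than 25 ug (0.1 mg/mL) are below the detection threshold.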

[3] = PET hydrolysis, aromatic products released after 48 h (umol product/mg enzyme); higher = more PET depolymerization activity
Experimental: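 HTP-purified, SUMO-cleaved, tagless PET hydrolase candidates (5 ug, 1.43 mg/g PET) were incubated 48 h without shaking with 3.5 mg amorphous PET film (aFilm) or crystalline PET powder (cryPow) in 0.5 mL buffer: NaCitrate pH 4.5/5.5, NaPhosphate pH 6.5/7.5, glycine pH 8.5. Incubation was at 40 or 60 C. Aromatic products (TPA, MHET, BHET) in the supernatant were quantified by UV absorbance at 260/280 nm relative to buffer blanks and expressed per mg enzyme. LCC-ICCG was the positive control on every plate.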

[4] = substrate: cryPow, 40 °C, pH 4.5
[5] = substrate: cryPow, 40 °C, pH 5.5
[6] = substrate: cryPow, 40 °C, pH 6.5
[7] = substrate: cryPow, 40 °C, pH 7.5
[8] = substrate: cryPow, 60 °C, pH 4.5
[9] = substrate: cryPow, 60 °C, pH 5.5
[10] = substrate: cryPow, 60 °C, pH 6.5
[11] = substrate: cryPow, 60 °C, pH 7.5
[12] = substrate: aFilm, 40 °C, pH 4.5
[13] = substrate: aFilm, 40 °C, pH 5.5
[14] = substrate: aFilm, 40 °C, pH 6.5
[15] = substrate: aFilm, 40 °C, pH 7.5
[16] = substrate: aFilm, 60 °C, pH 4.5
[17] = substrate: aFilm, 60 °C, pH 5.5
[18] = substrate: aFilm, 60 °C, pH 6.5
[19] = substrate: aFilm, 60 °C, pH 7.5

Row | Sequence | melting temperature [1] [C] | purified protein yield per well [2] [µg] | PET hydrolysis [3, 4] | PET hydrolysis [3, 5] | PET hydrolysis [3, 6] | PET hydrolysis [3, 7] | PET hydrolysis [3, 8] | PET hydrolysis [3, 9] | PET hydrolysis [3, 10] | PET hydrolysis [3, 11] | PET hydrolysis [3, 12] | PET hydrolysis [3, 13] | PET hydrolysis [3, 14] | PET hydrolysis [3, 15] | PET hydrolysis [3, 16] | PET hydrolysis [3, 17] | PET hydrolysis [3, 18] | PET hydrolysis [3, 19]
1 | NPYERGPAPTTSSIEASRGSFATSTTTVSRLAVSGFGGGTIYYPTSTASGTFGAVSIAPGFTATQSSMAWLGPRLASQGFVVFTIDTITTSDQPDSRGRQLLSSLDYLTQQSSVRSRIDSSRLGVVGHSMGGGGTLEAARSRPSLQAAVPLTGWNLTKSWSTVRVPTLVVGAQADTVAPVASHSIPFYTSLPSSLDKAYLELRGASHFAPNSANTTIAKYTLSWLKRFIDDDTRYEQFLCPIPGTSTTISDYRGNCPHAG [ESM140] | 51.7 | 187 | < 3 | 5 | 22 | 33 | < 3 | 4 | 8 | 9 |  |  |  |  |  |  |  | 
2 | MAENPYERGPAPTTSSIEASRGSFATSTVTVSRLAVSGFGGGTIYYPTSTTAGTFGAISIAPGFTALQSSIAWLGPRLASQGFVVFTIDTLTTSDQPDSRGRQLLAALDYLTQQSSVRSRIDSSRLGVVGHSMGGGGTLEAARSRPSLQAAIPLTGWNLTKTWSTVRVPTLVVGAQADTVAPVASHSIPFYNSLPSSLDKAYLELRGASHFAPNSSNTTIAKYTLSWLKRFIDNDTRYEQFLCPIPSTSLSISDYRGNCPHNG [TEP182] | 53.5 | 290 | < 3 | 6 | 11 | 17.5 ± 2.1 | < 3 | 4 | 12.5 ± 0.71 | 15.5 ± 0.71 | < 3 | < 3 | < 3 | < 3 | < 3 | < 3 | < 3 | < 3
3 | ADNPYQRGPAPTAASIAADRGPFATAQVTVPRGNGFGGGVIYYPTDTSQGTFGAIAIAPGFGTAWSYYAWQGPRLASFGFVVIGIETNTLNDYADARAAQLLAALDYLVNSSSVRDRVDRNRLAVGGHSMGGGGAILAANQRPSLLTAVGQAPYVPDGSLSGIKSPTIIFAGQADGTVTPQYAQNAYNTIPGSVERAYVEIANEGHGFPAGGGGGNSGAFARTMMVWLKLFVDKDTRYAPFLCPSLTNANGISKYMASCPLDPPGGGPTASPTSTPTSTPTSTPTSTPTGTPPAGGTSALRGVASGRCLDVNGASQANGATVLIWDCNGQNNQKWTSTSAGELRVYGNKCLDVNGGGTADGSAVIIWDCNGQSNQKWRLNSDGSITAVGANKCLDVSGNGTANGTRVQIWSCTGGTNQKWTRV [ESM010] | 64.6 | 79.7 | < 3 | 3 | 4 | 5 | < 3 | < 3 | < 3 | < 3 |  |  |  |  |  |  |  | 
4 | ADNPYERGPDPTESSIEASRGPFAVSQTTVSSLAVTGFGGGTIYYPTDTSQGTFGAVAISPGYTADQSSIAWIGPRLASQGFVVFTIDTITRYDQPASRGDQLLAALDYLTQRSSVRGRIDSSRLGVAGHSMGGGGTLEAAEERPSLQAAVPLAPWNLQKNFSGVRVPTFIIGGESDTVAPVATHSEPFYTSLPSTLDKAYMELNNASHFFPNTPNTTMAKYMISWFKRFIDDDTRYDQFLCPNPSGLAIEEYRSTCPY [TEP089] | 44.2 | 105 | < 3 | < 3 | < 3 | < 3 | < 3 | < 3 | < 3 | < 3 |  |  |  |  |  |  |  | 
5 | ATTSFQRGPAPTTASIQATSGPFATSQTTVSRISVTGFGGGDIYYPTSTSSGTFGAVAIAPGYTALRSSMAWLAPRIASQGFVVFNIDTLTTSDQPATRGTELLAALDYLTTRSTVRTRIDTTRLAVMGHSMGGGGTLEAAKSRPSLQAAIPLTPWDLNKSFAGLAVPTLIIGAQADTVAPVSQHAKPFFTSLPSGLDKAYLELAGASHFAPNTSNTTIASISIAWLKRFVDDDTRYDQFLCPGPTVGTAVSQFTTNCPHIS [ESM156] | 40.6 | 272 | < 3 | 9.5 ± 0.71 | 14.5 ± 5 | < 3 | < 3 | < 3 | < 3 | < 3 | < 3 | < 3 | < 3 | < 3 | < 3 | < 3 | < 3 | < 3
6 | ATGPSSPCTNCTRGPNPTVAALKSNSGPFSTAKFSVSGYLKGFGDSTVYYPTNTTGKMGAIAVIPGYLSYESSIEWWGPRLASHGFVVITMNTNTIYDQPDSRATQLSKALDYVIAQSNSSSSPIAGKVDSTRLGAIGWSMGGGGSLKLSTQRSLNAIIPQAPYYAGSNSFNTIKTPTLILACGVDAVAPVAAHASPFYNKIPNTTPKAFLEIYGGSHFCANSGYPNQDLLGMYGISWMKRFIDFDKRYSQFLCGPNHQADLAISEYRQNCNY [ESM048] | 49.6 | 48 | < 3 | < 3 | < 3 | < 3 |  |  |  |  |  |  |  |  |  |  |  | 
